Experimental data from the supplement of paper PMC9112550, “Optimization of the antimicrobial peptide Bac7 by deep mutational scanning” (BMC Biology, 2022).

test system: Escherichia coli TOP10; test: shrunken log2 fold change of peptide-encoding DNA abundance (4.5 h post-induction vs induction); higher = less antimicrobial activity (less host growth inhibition); details: time post-induction: 4.5 h; library: site-saturation at positions 5, 18, 19, 20
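Note: peptides expressed intracellularly from a pBAD plasmid library in pooled LB shake-flask culture, induced with 0.3% L-arabinose, DNA abundance read by NGS, three biological replicates, DESeq2 with apeglm shrinkage.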

Sequence	shrunken log2 fold change
RRIRSRPPRLPRPRPRPCQYPRP	0.0376
RRIRKRPPRLPRPRPRPISVPRP	-0.056
RRIRDRPPRLPRPRPRPILAPRP	0.115
RRIRCRPPRLPRPRPRPCKMPRP	5.36
RRIRSRPPRLPRPRPRPTQAPRP	0.0131
RRIRARPPRLPRPRPRPWFPPRP	-0.0966
RRIRYRPPRLPRPRPRPPQTPRP	-0.314
RRIRDRPPRLPRPRPRPFPFPRP	-0.163
RRIRDRPPRLPRPRPRPYAMPRP	0.168
RRIRNRPPRLPRPRPRPARKPRP	0.0797
RRIRKRPPRLPRPRPRPQTPPRP	1.39
RRIRVRPPRLPRPRPRPGMIPRP	-0.2
RRIRIRPPRLPRPRPRPSDRPRP	-0.24
RRIRWRPPRLPRPRPRPYKPPRP	-0.539
RRIRERPPRLPRPRPRPMQTPRP	0.0432
RRIRVRPPRLPRPRPRPTPRPRP	0.859
RRIRARPPRLPRPRPRPELPPRP	1.5
RRIRQRPPRLPRPRPRPEGKPRP	0.0352
RRIRIRPPRLPRPRPRPGDTPRP	-0.372
RRIRYRPPRLPRPRPRPMVEPRP	-0.201
RRIRCRPPRLPRPRPRPMSTPRP	-0.0888
RRIRPRPPRLPRPRPRPFMNPRP	-0.198
RRIRLRPPRLPRPRPRPCVNPRP	-0.00681
RRIRFRPPRLPRPRPRPAGMPRP	-0.124
RRIRMRPPRLPRPRPRPGCAPRP	1.09

Sequence	shrunken log2 fold change
RRIRRRPPRLPRPRPRPSRKPRP	0.129
RRIRTRPPRLPRPRPRPFCWPRP	-0.0403
RRIRGRPPRLPRPRPRPLILPRP	0.203
RRIRARPPRLPRPRPRPCLWPRP	-0.199
RRIRDRPPRLPRPRPRPNYTPRP	-0.771
RRIRRRPPRLPRPRPRPYVGPRP	-0.00208
RRIRARPPRLPRPRPRPPLPPRP	0.762
RRIRRRPPRLPRPRPRPEREPRP	0.297
RRIRGRPPRLPRPRPRPTYCPRP	0.309
RRIRTRPPRLPRPRPRPVCYPRP	-0.531
RRIRYRPPRLPRPRPRPRDGPRP	-0.0431
RRIRARPPRLPRPRPRPCFIPRP	-0.333
RRIRTRPPRLPRPRPRPKSQPRP	-0.285
RRIRRRPPRLPRPRPRPYMRPRP	0.044
RRIRLRPPRLPRPRPRPQEGPRP	0.0327
RRIRPRPPRLPRPRPRPPPPPRP	0.85
RRIRVRPPRLPRPRPRPRQKPRP	0.212
RRIRHRPPRLPRPRPRPALAPRP	0.24
RRIRYRPPRLPRPRPRPYFIPRP	-0.629
RRIRSRPPRLPRPRPRPWIVPRP	-0.127
RRIRTRPPRLPRPRPRPARGPRP	0.407
RRIRTRPPRLPRPRPRPRGTPRP	0.197
RRIRHRPPRLPRPRPRPWVQPRP	0.0187
RRIRARPPRLPRPRPRPGGTPRP	0.41
RRIRLRPPRLPRPRPRPVGRPRP	0.215

Sequence	shrunken log2 fold change
RRIRTRPPRLPRPRPRPERMPRP	0.275
RRIRHRPPRLPRPRPRPVEAPRP	0.0753
RRIRLRPPRLPRPRPRPEHGPRP	0.00489
RRIRVRPPRLPRPRPRPSHYPRP	-0.68
RRIRGRPPRLPRPRPRPAFRPRP	0.749
RRIRYRPPRLPRPRPRPKYGPRP	-0.176
RRIRERPPRLPRPRPRPRRCPRP	0.0702
RRIRWRPPRLPRPRPRPVNQPRP	0.0575
RRIRIRPPRLPRPRPRPEQVPRP	0.0205
RRIRNRPPRLPRPRPRPRPPPRP	1.26
RRIRVRPPRLPRPRPRPAQCPRP	-0.0313
RRIRQRPPRLPRPRPRPALRPRP	-0.00883
RRIRWRPPRLPRPRPRPNLCPRP	0.114
RRIRSRPPRLPRPRPRPTIHPRP	-0.51
RRIRMRPPRLPRPRPRPAGDPRP	0.882
RRIRVRPPRLPRPRPRPYQCPRP	-0.185
RRIRARPPRLPRPRPRPIRIPRP	0.0541
RRIRRRPPRLPRPRPRPTEIPRP	0.299
RRIRSRPPRLPRPRPRPLPKPRP	0.493
RRIRDRPPRLPRPRPRPGAPPRP	0.598
RRIRDRPPRLPRPRPRPEMMPRP	0.71
RRIRVRPPRLPRPRPRPTIHPRP	-0.239
RRIRRRPPRLPRPRPRPPAMPRP	0.814
RRIRWRPPRLPRPRPRPVCDPRP	0.534
RRIRFRPPRLPRPRPRPGFKPRP	0.122

Sequence	shrunken log2 fold change
RRIRTRPPRLPRPRPRPNYEPRP	-0.682
RRIRRRPPRLPRPRPRPKATPRP	0.165
RRIRQRPPRLPRPRPRPYTNPRP	-0.149
RRIRRRPPRLPRPRPRPKFAPRP	0.283
RRIRRRPPRLPRPRPRPSDLPRP	0.0119
RRIRHRPPRLPRPRPRPWCMPRP	-0.0194
RRIRIRPPRLPRPRPRPYYIPRP	-0.552
RRIRYRPPRLPRPRPRPEALPRP	-0.23
RRIRWRPPRLPRPRPRPDNMPRP	-0.0443
RRIRTRPPRLPRPRPRPHTVPRP	-0.244
RRIRWRPPRLPRPRPRPQTDPRP	0.236
RRIRRRPPRLPRPRPRPHCNPRP	-0.135
RRIRTRPPRLPRPRPRPVNTPRP	-0.103
RRIRIRPPRLPRPRPRPGFEPRP	3.71
RRIRFRPPRLPRPRPRPERSPRP	0.0713
RRIRPRPPRLPRPRPRPQINPRP	-0.122
RRIRERPPRLPRPRPRPYNLPRP	-0.321
RRIRTRPPRLPRPRPRPMCFPRP	0.0222
RRIRCRPPRLPRPRPRPQHFPRP	-0.0667
RRIRPRPPRLPRPRPRPRLAPRP	0.507
RRIRDRPPRLPRPRPRPHGNPRP	-0.149
RRIRDRPPRLPRPRPRPTFGPRP	0.228
RRIRFRPPRLPRPRPRPNRKPRP	-0.173
RRIRQRPPRLPRPRPRPDVTPRP	0.143
RRIRKRPPRLPRPRPRPKALPRP	1.8

Sequence	shrunken log2 fold change
RRIRQRPPRLPRPRPRPYRRPRP	0.0231
RRIRYRPPRLPRPRPRPYKIPRP	-0.573
RRIRIRPPRLPRPRPRPKASPRP	-0.0616
RRIRGRPPRLPRPRPRPGHDPRP	0.0495
RRIRERPPRLPRPRPRPSAPPRP	0.18
RRIRERPPRLPRPRPRPMTMPRP	-0.136
RRIRGRPPRLPRPRPRPCWNPRP	0.183
RRIRKRPPRLPRPRPRPEYCPRP	0.109
RRIRTRPPRLPRPRPRPEEIPRP	0.0464
RRIRVRPPRLPRPRPRPICPPRP	-0.0804
RRIRRRPPRLPRPRPRPVIYPRP	0.0526
RRIRKRPPRLPRPRPRPCDPPRP	0.121
RRIRERPPRLPRPRPRPKPDPRP	0.0317
RRIRFRPPRLPRPRPRPLMVPRP	-0.38
RRIRHRPPRLPRPRPRPHDKPRP	-0.293
RRIRMRPPRLPRPRPRPNDWPRP	0.435
RRIRRRPPRLPRPRPRPGHQPRP	0.342
RRIRHRPPRLPRPRPRPSDGPRP	-0.266
RRIRQRPPRLPRPRPRPAMFPRP	0.0399
RRIRARPPRLPRPRPRPIYEPRP	-0.352
RRIRFRPPRLPRPRPRPFDCPRP	-0.0469
RRIRCRPPRLPRPRPRPMRGPRP	1.05
RRIRLRPPRLPRPRPRPDSKPRP	-0.24
RRIRQRPPRLPRPRPRPNYLPRP	-0.134
RRIRGRPPRLPRPRPRPAQHPRP	0.378

Sequence	shrunken log2 fold change
RRIRFRPPRLPRPRPRPLKDPRP	-0.276
RRIRGRPPRLPRPRPRPWDDPRP	0.137
RRIRFRPPRLPRPRPRPIMPPRP	-0.127
RRIRTRPPRLPRPRPRPLNPPRP	-0.19
RRIRQRPPRLPRPRPRPIFSPRP	0.0638
RRIRPRPPRLPRPRPRPYSWPRP	-0.046
RRIRNRPPRLPRPRPRPHVHPRP	-0.109
RRIRWRPPRLPRPRPRPYCLPRP	-0.633
RRIRWRPPRLPRPRPRPGIPPRP	0.11
RRIRARPPRLPRPRPRPQVFPRP	0.278
RRIRWRPPRLPRPRPRPGMHPRP	0.343
RRIRPRPPRLPRPRPRPGPKPRP	0.394
RRIRYRPPRLPRPRPRPESQPRP	-0.0411
RRIRGRPPRLPRPRPRPDHFPRP	-0.31
RRIRRRPPRLPRPRPRPRYQPRP	0.0511
RRIRVRPPRLPRPRPRPNQQPRP	0.0476
RRIRVRPPRLPRPRPRPTHLPRP	0.37
RRIRPRPPRLPRPRPRPLFYPRP	-0.383
RRIRFRPPRLPRPRPRPGMSPRP	0.0155
RRIRARPPRLPRPRPRPWGGPRP	0.605
RRIRYRPPRLPRPRPRPRKGPRP	-0.013
RRIRGRPPRLPRPRPRPESCPRP	1.33
RRIRGRPPRLPRPRPRPWLLPRP	0.216
RRIRPRPPRLPRPRPRPPQHPRP	0.485
RRIRARPPRLPRPRPRPFYHPRP	-0.462
